Data: the nanobody polyreactivity screen of Harvey et al. (2022)

Experiment: yeast display, Sf9 membrane polyspecificity reagent, FACS + sequencing; frameworks hold sequencing errors
How it was run: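 In a synthetic yeast display library (Saccharomyces cerevisiae BJ5465), nanobody expression was induced with galactose for 36–48 hours. FACS gates were set low and high (top ~1%) using anti-HA fluorescence for expression and streptavidin fluorescence for binding of the Sf9 membrane reagent. Each polyreactivity label is drawn from the gate of origin.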
For “QVQLVESGGGLVQAGGSLRLSCAASGSIFVGNAMGWYRQAPGKERELVAAISRSGGRTYYADSVKRRFTISRDNAKITVYLQMNSLKPEHTAVYYCNAYGWEQLQMDSWGQGTQVTVSS”, the “polyreactivity (PSR sort gate)” value was “high polyreactivity”.
In the case of “QVQLVESGGGLVQAGGSLRLSCAASGSIFVGNAMGWYRQAPGKERELVAAISSSGGRTFYADSVKGRFTISRDNAKNTVYLQMNSLKPEDTAVYYCAAVYTHWQQRMDYWGQGTQVTVSS”, the “polyreactivity (PSR sort gate)” value is reported as “high polyreactivity”.
With “QVQLVESGGGLVQAGGSLRLSCAASGSIFVGNAMGWYRQAPGKQRELVATISWSGGSTYYADSVKGRFTISRDNAKNTVYLQMNSVKPEDTAVYYCNAVYVSSFTGHDYWGQGTQVTVSS” the “polyreactivity (PSR sort gate)” value was “low polyreactivity”.
With “QVQLVESGGGLVQAGGSLRLSCAASGSIFVGYAMGWYRQAPGKERELVAAISSNGGSTYYADSVKGRFTISRDNAKNTVYLQMNSLKPEDTAVYYCAKDYTYSFGRSLDYWGQGTQVTVSS” the “polyreactivity (PSR sort gate)” value was “low polyreactivity”.
With “QVQLVESGGGLVQAGGSLRLSCAASGSIFVGYAMGWYRQAPGKERELVAAITGSGTRTYYADSVKGRFTISRDNAKNTVFLQMNSLKPEDTAVYYCAAPLSYKNVKYDYWGQGTQVTVSS” the “polyreactivity (PSR sort gate)” value was “low polyreactivity”.
With “QVQLVESGGGLVQAGGSLRLSCAASGSIFVGYAMGWYRQAPGKERELVAAITKRGGSTSYADSVKGRFTISRDNAKNTVYLQMNSLKPEDTAVYYCAKLYYRHLYEYDYWGQGTQVTVSS” the “polyreactivity (PSR sort gate)” value was “high polyreactivity”.
With “QVQLVESGGGLVQAGGSLRLSCAASGSIFVGYAMGWYRQAPGKERELVASITTPGGSTHYADSVKGRFTISRDNAKNTVYLQMNSLKPEDTAVYYCAADSLSNGVLQYLPGYDYWGQGTQVTVSS” the “polyreactivity (PSR sort gate)” value was “low polyreactivity”.
With “QVQLVESGGGLVQAGGSLRLSCAASGSIFVGYDMGWYRQAPGKERDLVASINGGDSTNYADSVKGRFTISRDNAKYTVYLQMNSLKPEDTAVYYCAKDVTYTDEYDYWGQGTQVTVSS” the “polyreactivity (PSR sort gate)” value was “low polyreactivity”.
For “QVQLVESGGGLVQAGGSLRLSCAASGSIFVGYGALGWYRQAHGKERELVAAITSGTSTYYADSVKGRFTISRDNAKNTVYLQINSLKPEDTAVYYCAARGFLKYVTEFDYWGQGTQVTVSS”, the “polyreactivity (PSR sort gate)” value was “low polyreactivity”.
With “QVQLVESGGGLVQAGGSLRLSCAASGSIFVGYVMGWYRQAPGKERELVAAISRSGGRTYYADSVKGRFTISRDNAKNTVYLQMNSLKPEDTAVYYCAADSYTQPYGSLPHKQRYEYWGQGTQVTVSS” the “polyreactivity (PSR sort gate)” value was “low polyreactivity”.
With “QVQLVESGGGLVQAGGSLRLSCAASGSIFVHNAMGWSRQAPGKERELVAAITRGGSTYYADSVKGRFTISRDNAKNTVYLQMNSLKPEDTAVYYCAALAAWRWDLYDYWGQGTQVTVSS” the “polyreactivity (PSR sort gate)” value was “low polyreactivity”.
For “QVQLVESGGGLVQAGGSLRLSCAASGSIFVLYAMGWYRQAPGKERELVAAISWRGGGTYYADSVKGRFTISRDNAKNTVYLLMNSLKPEDTAVYYCAAEYRLDAILYTYEFDYWGQGTQVTVSS”, the “polyreactivity (PSR sort gate)” value was “high polyreactivity”.
For “QVQLVESGGGLVQAGGSLRLSCAASGSIFVNKGMGWYRQAPGKERELVAAIRLSTGSTYYADSVKGRFTISRDNAKNTVYLKINSLKREDTAVDDCATRYYIWGNWGQGTQVTGSS”, the “polyreactivity (PSR sort gate)” value was “high polyreactivity”.
For “QVQLVESGGGLVQAGGSLRLSCAASGSIFVNNAMGWYRQAPGKERELVAAISSRGGSTYYADSVKGRFTISRDNAKNTVYLQMNSLKPEDTAVYYCAAEYDGPYYSFYPEQRYYWGQGTLVTVSS”, the “polyreactivity (PSR sort gate)” value was “low polyreactivity”.
With “QVQLVESGGGLVQAGGSLRLSCAASGSIFVNNAMGWYRQAPGKERELVAAISSRGGSTYYADSVKGRFTISRDNAKNTVYLQMYSLKPEDTAVYYCAAEYDGPYYSFYPEQRYYWGQGTQVTVSS” the “polyreactivity (PSR sort gate)” value was “low polyreactivity”.
With “QVQLVESGGGLVQAGGSLRLSCAASGSIFVNNAMGWYRQAPGKERELVAAISSRSSRTFYADSVKGRFTISRDNAKNTVYLQMNSLKPEDTAVYYCAVKKRAPDGDYWGQGTQVTVSS” the “polyreactivity (PSR sort gate)” value was “high polyreactivity”.
With “QVQLVESGGGLVQAGGSLRLSCAASGSIFVPNAMGWYSQAPGKERELVASISYSGTSTYYADSVKGRFTISRDNAKNTVYLQMNSLKPEDTAVYYCAVTWYPWYYGYWGQGTQVTVSS” the “polyreactivity (PSR sort gate)” value was “high polyreactivity”.
In the case of “QVQLVESGGGLVQAGGSLRLSCAASGSIFVQYALGWYRQAPGKERELVAAISQRGGSTYYADSVKGRFTISRDNAKNTVYVQMNSLKPADTAVYYCRPYPPSYYVTFGYGYWGQGTQVTVSS”, the “polyreactivity (PSR sort gate)” value is reported as “high polyreactivity”.
For “QVQLVESGGGLVQAGGSLRLSCAASGSIFVQYAMGWYRQAPGKERELVAAITRRAGSTYYADSVKGRFTISRDNAKNTVYLQMNSLKPEDTAVYYCAAGYRYRYTRDIWYEYWGQGTQVTVSS”, the “polyreactivity (PSR sort gate)” value was “high polyreactivity”.
In the case of “QVQLVESGGGLVQAGGSLRLSCAASGSIFVRNAMGWYRQAPGKERELVAAISGSGGRTYYADSEKGRFTISRDNAKNTVYLQMNSLKPEDTAVYYCAKEVTYWYGGNYDYWGQGTQVTVSS”, the “polyreactivity (PSR sort gate)” value is reported as “high polyreactivity”.
With “QVQLVESGGGLVQAGGSLRLSCAASGSIFVRNAMGWYRQAPGKERELVAAITYRGGSTYYADSVKGRFTISRDNAKNTVYLQMNSLKPEDTAVYYCAARYWQSYRSQVTHSSTLDYWGQGTQVTVSS” the “polyreactivity (PSR sort gate)” value was “low polyreactivity”.
In the case of “QVQLVESGGGLVQAGGSLRLSCAASGSIFVRNAMGWYRQAPGKERELVASISYSGGTTYADSVKGRFTISRDNAKNTVYLQMNSLKPEDTAVYYCNAGGVYPRFTFLEQGYEMDYWGQGTQVTVSS”, the “polyreactivity (PSR sort gate)” value is reported as “low polyreactivity”.
With “QVQLVESGGGLVQAGGSLRLSCAASGSIFVRYAMGWYRQAPGKERELVAAISSGGRTYYADSVKGRFTISRDNAKNPVYLQMNSLKPEDTAVYYCNAVKRVPSLGPYDYWGQGTQVTVSS” the “polyreactivity (PSR sort gate)” value was “high polyreactivity”.
With “QVQLVESGGGLVQAGGSLRLSCAASGSIFVRYAMGWYRQAPGKERELVAGITNSGGSTYYADSVKGRFTISRDNEKNTVYLQMNSLKPEDTAVYYCAADAGGWWYKYYYWGQGTQVTVSS” the “polyreactivity (PSR sort gate)” value was “high polyreactivity”.
In the case of “QVQLVESGGGLVQAGGSLRLSCAASGSIFVRYAMGWYRQAPGKERELVASIRSRGDSTYYADSVKGRFTISRDNAKNTVYLQMNSLKPEDTAVYYCAGRRYPPRMDYWGQGTQVTVSS”, the “polyreactivity (PSR sort gate)” value is reported as “high polyreactivity”.
With “QVQLVESGGGLVQAGGSLRLSCAASGSIFVRYTMGWYRQAPGKEREMVAAISWGGGSTYYADSVKGRFTISRDNAKNTVYLQMNSLKPEDTAVYYCNADWSWYNYYDFDYWGQGTQVTVSS” the “polyreactivity (PSR sort gate)” value was “low polyreactivity”.
For “QVQLVESGGGLVQAGGSLRLSCAASGSIFVSNAMGWYRQAPGKERELVAAISQSGGSTYYADSVKGRFTISRDNAKNTVYLQMNSLKPEDTAVYYCATPIRSGFRIYDYWGQGTQVTVSS”, the “polyreactivity (PSR sort gate)” value was “low polyreactivity”.
With “QVQLVESGGGLVQAGGSLRLSCAASGSIFVSYAMGWYRQAPGKERELVAAIRRGGTSTYYEDSVKGRFTISRDNAKNTVYLQMNSLKPEDTAVYYCAAPRYFTRYRPLGIYDYWGQGTQVTVSS” the “polyreactivity (PSR sort gate)” value was “high polyreactivity”.
With “QVQLVESGGGLVQAGGSLRLSCAASGSIFVTNAMGWYRQAPGKERELVAAIRWSGDSTYYADSVKGRFTISRDNAKNTVYLQMKSLKPEDTAVYYCDAESFRYIRLNYKYGDYYWGHGTQVTVSS” the “polyreactivity (PSR sort gate)” value was “high polyreactivity”.
With “QVQLVESGGGLVQAGGSLRLSCAASGSIFVTNAMGWYRQAPGKERELVAAITRGGNTNYADSVKGRFTISRDNAKNTVYLQMNSLKPEDTAVYYCAADTSYYYVYGYFPGYYYWGLGTQVTVSS” the “polyreactivity (PSR sort gate)” value was “low polyreactivity”.
With “QVQLVESGGGLVQAGGSLRLSCAASGSIFVTYALGWYRQAPGKERELVAAINSGGRTNYADSVKGRFTISRDNAKNTVYLQMNSLKPEDTAVYYCAATGRYFYPYYRYDYWGQGTQVTVSS” the “polyreactivity (PSR sort gate)” value was “low polyreactivity”.
